Columns and labels:
BG505-SOSIP = BG505-SOSIP (UniProt Q2N0S6)
VRC01gl Fab with G107aL = assay: dynamic light scattering
[1] = molecular target: VRC01gl Fab with comL ('VQ' insertion at 103aL and 103bL, L104VL, E105DL); assay: dynamic light scattering

3BNC131 Fab H:Q39L
Kd (BG505-SOSIP): 21.2 nM | koff (BG505-SOSIP): 0.00095 s⁻¹ | kon (BG505-SOSIP): 44800 M⁻¹ s⁻¹

N6 Fab L:H38Q
Kd (BG505-SOSIP): 0.0781 nM | koff (BG505-SOSIP): 6.04e-06 s⁻¹ | kon (BG505-SOSIP): 76800 M⁻¹ s⁻¹

VRC01gl Fab with G107aL
stoichiometry N (VRC01gl Fab with G107aL): 2

VRC01gl Fab with comL ('VQ' insertion at 103aL and 103bL, L104VL, E105DL)
stoichiometry N [1]: 4

— PMC8761896
